{"source": "paper PMC4263437", "system": "O=C(Cc1cccs1)N[C@@H]1C(=O)N2C(C(=O)O)=C(/C=C/c3ccc([N+](=O)[O-])cc3[N+](=O)[O-])CS[C@H]12", "experiment": "purified protein", "type": "biochemical, Acinetobacter baumannii"}
{"substance": "ADC-7 β-lactamase (Acinetobacter-derived cephalosporinase) (Acinetobacter baumannii)", "values": [{"measurement": "Km", "result": 21.2, "unit": "µM"}]}
